Patent US20230181528A1, “COMPOSITIONS AND METHODS FOR TREATING NEOPLASIA” (The Broad Institute, Inc., priority 2020, published 2023)

Legend:
VPS4B^neutral cell lines = assay: CRISPR-based cell viability assay with CellTiter-Glo (sgRNAs targeting VPS4A); design: species or system human; conditions: YAPC; seven-day CellTiter-Glo; scale 0 (cutting controls) to −1 (pan-essential sgRNAs); read from FIG. 2A
Method: For FIG. 2A, CellTiter-Glo viability assays were performed with stably expressing SpCas9 cell lines in 96 well plates. Cells were seeded and infected with sgRNA expressing lentivirus in wells on day 0, and selected with puromycin 24 hours later. Cell titer-Glo viability was read out 7 days after plating and infection. Prior to CellTiter-Glo viability assays, all cell lines were individually optimized for the assay including titrating both cell seeding density and volume of virus used for infection. All lentiviral preps for each sgRNA described below were batch controlled and titrated on three different cell lines representing cell lines with low, medium and high transduction efficiency. Optimal cell seeding densities and viral volumes for infections were then used for all subsequent viability assays using CRISPR. […]
Each assay was required to meet specific quality control metrics. […] For quality control of raw luminescence from CellTiter-Glo, infection efficiency (puro/no puro selection for each sgRNA) was required to be at least 80%, and all replicate wells had to be within 2 standard deviations of the mean for that sgRNA infection. […] SpCas9 activity from each cell line was also required to be greater than 50%, determined by the percent viability reduction of the average of the 3 pan-essential genes (sgPOLR2D, sgSF3B1 and sgKIF11) to negative controls (sgLacZ, sgChr2 and sgAAVS1). […]

[1] = system: SNU213 pancreatic cancer cell line (VPS4B^loss); assay: Interferon dose-response curves with VPS4A suppression (CellTiter-Glo); assay type: cell-based, human; conditions: SNU213 shVPS4A-2, co-treatment with 1 μM doxycycline, interferon titration for last 3 days
Method: (§1) To determine whether interferon treatment cooperate with VPS4A suppression, pancreatic cancer cell lines (KP4, PANC0403 and SNU213) stably expressing the doxycycline-inducible RNAi system against VPS4A (shVPS4A-2) were plated in white-walled 96-well plates at 100˜400 cells per well in 100 μL of 10% FBS-supplemented RPMI-1640 with L-glutamine with or without 1 μM doxycycline. Plates were incubated at 37° C., 5% CO2 for 3 days. […] At the same time, the doxycycline was refreshed. Cells were then incubated for an additional 3 days at 37° C., 5% CO2. Afterwards, 100 μL of premixed CellTiter-Glo (Promega) reagent was added to the wells to lyse cells by shaking the plates at 500 RPM for 10 minutes at room temperature. Luminescence for each well was then measured using an Envision plate reader (Perkin Elmer) to measure cell viability using the ATP-based readout. Luminescence signal for each well was normalized to the average signal from 6 wells treated without interferon for each cell line. These normalized values were then visualized using GraphPad Prism 8.3.0 fitted with a four-parameter log-based non-linear dose-response curve.

[2] = system: PANC0403 pancreatic cancer cell line (VPS4B^loss); assay: as above; assay type: cell-based, human; conditions: PANC0403 shVPS4A-2, co-treatment with 1 μM doxycycline, interferon titration for last 3 days
Method: as §1

VPS4 ATPase activity = assay: In vitro assay of ATPase activity of recombinant VPS4A and VPS4B constructs; assay type: biochemical; conditions: for fold change in turnover number between VPS4A and VPS4B construct with the same tag: VPS4B construct vs VPS4A construct; for Turnover (preliminary turnover number): recombinant tagged constructs, ATPase activity
Description: Active oligomers of VPS4A and VPS4B were achieved through recombinant production and an in vitro assay was used to measure ATPas activity. […] Hcp1 (also known as His6 tag (SEQ ID NO: 32)) and FL (also known as FLAG tag) were used.

For “sgVPS4A2: sgRNA targeting VPS4A intron/exon junction, 5′-GGGCCGCACGAAGTACCTGG (SEQ ID NO: 40) (listed as DNA, chemistry not given here)”, the “VPS4A dependency score (normalized viability effect)” value (VPS4B^neutral cell lines) was 0.3-0.4.

For “interferon-γ: purified recombinant human interferon-γ (PeproTech)”, the “sensitization to VPS4A suppression (6-day cell viability)” value [1] was “strongly sensitized” and the “sensitization to VPS4A suppression (6-day cell viability)” value [2] was “strongly sensitized”.

“VPS4B-FL: recombinant VPS4B construct with FL (FLAG) tag” was tested, and the “fold change in turnover number between VPS4A and VPS4B construct with the same tag” value (VPS4 ATPase activity) was > 1 fold and the “Turnover (preliminary turnover number)” value (VPS4 ATPase activity) was 21 s⁻¹.

For “sgVPS4A3: sgRNA targeting VPS4A intron/exon junction, 5′-ATTGTTATTCCCCACCCCTG (SEQ ID NO: 41) (listed as DNA, chemistry not given here)”, the “VPS4A dependency score (normalized viability effect)” value (VPS4B^neutral cell lines) was 0.25-0.35.

With “VPS4B-Hcp1: recombinant VPS4B construct with Hcp1 tag” the “fold change in turnover number between VPS4A and VPS4B construct with the same tag” value (VPS4 ATPase activity) was > 600 fold and the “Turnover (preliminary turnover number)” value (VPS4 ATPase activity) was 33280 s⁻¹.

B1: VPS4A-Hcp1: recombinant VPS4A construct with Hcp1 tag (protein, UniProt Q9UN37 1-437, looked up)
Vacuolar protein …: MTTSTLQKAIDLVTKATEEDKAKNYEEALRLYQHAVEYFLHAIKYEAHSDKAKESIRAKCVQYLDRAEKLKDYLRSKEKHGKKPVKENQSEGKGSDSDSEGDNPEKKKLQEQLMGAVVMEKPNIRWNDVAGLEGAKEALKEAVILPIKFPHLFTGKRTPWRGILLFGPPGTGKSYLAKAVATEANNSTFFSVSSSDLMSKWLGESEKLVKNLFELARQHKPSIIFIDEVDSLCGSRNENESEAARRIKTEFLVQMQGVGNNNDGTLVLGATNIPWVLDSAIRRRFEKRIYIPLPEEAARAQMFRLHLGSTPHNLTDANIHELARKTEGYSGADISIIVRDSLMQPVRKVQSATHFKKVCGPSRTNPSMMIDDLLTPCSPGDPGAMEMTWMDVPGDKLLEPVVCMSDMLRSLATTRPTVNADDLLKVKKFSEDFGQES
modifications: Hcp1 tag
For B1, the “Turnover (preliminary turnover number)” value (VPS4 ATPase activity) was 53 s⁻¹.

B2: VPS4A-FL: recombinant VPS4A construct with FL (FLAG) tag (protein, UniProt Q9UN37 1-437, looked up)
Vacuolar protein …: B1 Vacuolar protein …
modifications: FLAG tag
In the case of B2, the “Turnover (preliminary turnover number)” value (VPS4 ATPase activity) is reported as 10 s⁻¹.
